# Data from US20220251222A1, “IL-6Ralpha/IL-8R BISPECIFIC BINDING AGENTS FOR INHIBITING CANCER CELL MIGRATION” (The Johns Hopkins University, priority 2019, published 2022).
# Experiments:
# IL-6Rα = molecular target: T1, IL-6Rα (Homo sapiens, UniProt P08887); experiment: Cell surface binding on IL-6Rα+/IL-8R− HEK 293T cells (flow cytometry); conditions: 2 hr at 4° C.
# T1 construct: expressed in transfected cells; host or cells: HEK 293T, lentiviral transduction (pCDH backbone)
# T1 sequence (P08887 20-468): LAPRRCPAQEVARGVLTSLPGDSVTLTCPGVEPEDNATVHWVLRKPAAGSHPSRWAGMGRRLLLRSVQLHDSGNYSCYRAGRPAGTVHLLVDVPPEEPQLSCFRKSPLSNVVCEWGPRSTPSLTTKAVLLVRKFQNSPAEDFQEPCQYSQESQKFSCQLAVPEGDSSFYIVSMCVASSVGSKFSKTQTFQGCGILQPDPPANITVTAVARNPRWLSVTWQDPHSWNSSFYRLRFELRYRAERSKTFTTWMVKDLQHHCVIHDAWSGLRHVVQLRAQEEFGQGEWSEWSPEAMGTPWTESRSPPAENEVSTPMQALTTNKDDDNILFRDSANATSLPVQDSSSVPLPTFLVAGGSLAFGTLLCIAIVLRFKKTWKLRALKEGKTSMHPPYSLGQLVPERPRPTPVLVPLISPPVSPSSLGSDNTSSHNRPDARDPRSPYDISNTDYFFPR
# Text: GeneJuice (Sigma Aldrich) was used as the transfection reagent.
# Mean fluorescence intensity (MFI) of unstimulated cells was subtracted.
# IL-8 binding to IL-8R = molecular target: T2, IL-8 binding to IL-8R (Homo sapiens, UniProt P25025); experiment: IL-8 cell surface binding inhibition on IL-6Rα−/IL-8R+ HEK 293T cells; conditions: His-tagged IL-8 400 nM
# T2 construct: expressed in transfected cells; host or cells: HEK 293T, lentiviral transduction (IL-6Rα−/IL-8R+)
# T2 sequence (P25025 1-360): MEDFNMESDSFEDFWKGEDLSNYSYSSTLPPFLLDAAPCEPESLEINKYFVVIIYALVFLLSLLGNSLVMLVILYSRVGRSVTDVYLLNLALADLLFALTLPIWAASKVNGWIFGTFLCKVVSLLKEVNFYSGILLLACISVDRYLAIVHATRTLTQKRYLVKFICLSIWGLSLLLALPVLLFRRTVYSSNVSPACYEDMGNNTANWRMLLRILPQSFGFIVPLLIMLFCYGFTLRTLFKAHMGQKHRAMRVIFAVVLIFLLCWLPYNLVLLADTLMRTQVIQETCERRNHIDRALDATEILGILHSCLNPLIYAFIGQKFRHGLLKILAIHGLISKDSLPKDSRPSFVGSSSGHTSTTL
# Protocol: Cells were then washed and incubated with 1:200 dilution of Alexa Fluor 647-conjugated streptavidin (Fisher Scientific, cat #: S21374) in PBSA for 15 min at 4° C. […] Curves were fitted to a first-order logistic model and IC50 values were calculated using GraphPad Prism data analysis software. Mean fluorescence intensity (MFI) of unstimulated cells was subtracted. […]
substance,measurement,setting,value
tocilizumab,"KD, binding to IL-6Rα on cells",IL-6Rα,only recognized IL-6Rα^+ cells
same,"IC50, competition with IL-8 binding to IL-8R",IL-8 binding to IL-8R,did not exert any inhibitory effects
